Results from US20160046728.

Tested on: Ir-CPI (Ixodes ricinus Contact Phase Inhibitor), recombinant

factor IXa
amidolytic activity on chromogenic substrate (protease:Ir-CPI 1:5): The results obtained did not show any effect of Ir-CPI protein on the amidolytic activity of these factors

factor XIa
activation of factor XII into factor XIIa by factor XIa (reconstituted system, purified factors, chromogenic substrate): Ir-CPI inhibits ... the activation of factor XII into factor XIIa by factor XIa | amidolytic activity on chromogenic substrate (protease:Ir-CPI 1:5): The results obtained did not show any effect of Ir-CPI protein on the amidolytic activity of these factors

plasma kallikrein
activation of factor XII into factor XIIa by kallikrein (reconstituted system, purified factors, chromogenic substrate): Ir-CPI did not inhibit the activation of factor XII into factor XIIa by kallikrein | amidolytic activity on chromogenic substrate (protease:Ir-CPI 1:5): The results obtained did not show any effect of Ir-CPI protein on the amidolytic activity of these factors

thrombin
amidolytic activity on chromogenic substrate (protease:Ir-CPI 1:5): The results obtained did not show any effect of Ir-CPI protein on the amidolytic activity of these factors
